This data set deals with the molecule itself. The data set is described as follows: crystal structure.

B1: Thermotoga maritima Mre11^(H94Q, F291S) (residues L7M-385), nuclease deficient (enzyme)
chain: MKILHTSDWHLGVTSWTSSRPVDRREELKKALDKVVEEAEKREVDLILLTGDLLHSRNNPSVVALHDLLDYLKRMMRTAPVVVLPGNQDWKGLKLFGNFVTSISSDITFVMSFEPVDVEAKRGQKVRILPFPYPDESEALRKNEGDFRFFLESRLNKLYEEALKKEDFAIFMGHFTVEGLAGYAGIEQGREIIINRALIPSVVDYAALGHIHSFREIQKQPLTIYPGSLIRIDFGEEADEKGAVFVELKRGEPPRYERIDASPLPLKTLYYKKIDTSALKSIRDSCRNFPGYVRVVYEEDSGILPDLMGEIDNLVKIERKSRREIEEVLRESPEEFKEELDKLDYFELFKEYLKKREENHEKLLKILDELLDEVKKSEA
In the case of B1, the binding result was “binds”.

The record behind these values is publication PMC3258140 (Nucleic Acids Research, 2011).
